Assay results: patent US20250282874A1

Target: human PD-L1 expressed on cells (human) (UniProt Q9NZQ7)
Test: flow cytometry on 293T-PD-L1-CD3L cells, PE anti-human IgG, Mean PE-A; fit of a nearly flat control curve

EC50: 29.2 nM
Substance: Isotype control (antibody)
